This note sets out measurements from paper PMC9812381 (Science Advances, 2023).

For the assay, the target named is T1, Cullin-5 (CUL5), residues 12-780 (human, UniProt Q93034 12-780).
T1 construct: source: E. coli BL21 (DE3), coexpressed with RBX2, purified (Ni-NTA, SEC); not shown: GB1, N-terminal, cleaved
T1 sequence: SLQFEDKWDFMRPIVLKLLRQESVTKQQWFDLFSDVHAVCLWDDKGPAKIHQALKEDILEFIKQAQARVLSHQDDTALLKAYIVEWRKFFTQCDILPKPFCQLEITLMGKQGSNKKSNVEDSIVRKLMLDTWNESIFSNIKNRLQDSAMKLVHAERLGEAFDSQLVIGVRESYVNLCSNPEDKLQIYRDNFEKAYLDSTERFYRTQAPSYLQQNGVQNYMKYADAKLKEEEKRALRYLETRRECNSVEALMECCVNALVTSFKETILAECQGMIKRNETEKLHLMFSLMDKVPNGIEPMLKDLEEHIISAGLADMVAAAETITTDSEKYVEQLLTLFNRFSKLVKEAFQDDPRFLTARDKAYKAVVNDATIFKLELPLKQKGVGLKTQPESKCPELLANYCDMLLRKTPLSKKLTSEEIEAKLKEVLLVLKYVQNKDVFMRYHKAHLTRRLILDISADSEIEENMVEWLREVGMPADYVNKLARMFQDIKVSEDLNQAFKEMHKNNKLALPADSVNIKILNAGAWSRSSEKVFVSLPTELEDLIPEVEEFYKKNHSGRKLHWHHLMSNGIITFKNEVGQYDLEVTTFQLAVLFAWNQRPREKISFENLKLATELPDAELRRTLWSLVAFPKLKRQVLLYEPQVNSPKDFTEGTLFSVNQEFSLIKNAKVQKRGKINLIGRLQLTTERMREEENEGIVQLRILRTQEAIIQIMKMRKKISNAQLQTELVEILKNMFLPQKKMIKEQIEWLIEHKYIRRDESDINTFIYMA
The assay can be described thus: cryo-EM structure. The conditions noted are these: both partners purified.

B1: zinc finger RING-box protein 2 (RBX2), residues 1-113 (natural protein)
chain: MADVEDGEETCALASHSGSSGSKSGGDKMFSLKKWNAVAMWSWDVECDTCAICRVQVMDACLRCQAENKQEDCVVVWGECNHSFHNCCMSLWVKQNNRCPLCQQDWVVQRIGK
notes: source: E. coli BL21 (DE3), coexpressed with CUL5, purified (Ni-NTA, SEC)
On to B1, for which the binding result is given as “binds”.
